Read-outs that look alike come from different tables or passages of the source. Starred links: 1 amine or outer side, 2 acyl side, 3 side chain; linkers in the order of their positions; H or OH if unused. Positions of bridges follow the written chain, without caps; N, C: chain ends. Non-standard residues stand in square brackets, D forms with d. No end group written: not given here. Ser(Bzl) = O-benzyl-serine, O=C([C@H](COCc1ccccc1)N[*:1])[*:2]; dPhe(4-Cl) = N[C@H](Cc1ccc(Cl)cc1)C(=O)O; 1Nal = N[C@@H](Cc1cccc2ccccc12)C(=O)O; 2Nal = N[C@@H](Cc1ccc2ccccc2c1)C(=O)O; d2Nal = N[C@H](Cc1ccc2ccccc2c1)C(=O)O; Nle = CCCC[C@H](N)C(=O)O; Ahp = NCCCCCCC(=O)O
Columns and labels:
human MC1-R = target: T1, human MC1-R (human, UniProt Q01726 1-317); experiment: radioligand competition, NDP-α-MSH, human MC1-R, normal system
T1 construct: whole, on cells; Used in separate experiments for Ki with NDP-α-MSH; the source of the membranes is not described; also called hMC1-R
T1 sequence (Q01726 whole entry): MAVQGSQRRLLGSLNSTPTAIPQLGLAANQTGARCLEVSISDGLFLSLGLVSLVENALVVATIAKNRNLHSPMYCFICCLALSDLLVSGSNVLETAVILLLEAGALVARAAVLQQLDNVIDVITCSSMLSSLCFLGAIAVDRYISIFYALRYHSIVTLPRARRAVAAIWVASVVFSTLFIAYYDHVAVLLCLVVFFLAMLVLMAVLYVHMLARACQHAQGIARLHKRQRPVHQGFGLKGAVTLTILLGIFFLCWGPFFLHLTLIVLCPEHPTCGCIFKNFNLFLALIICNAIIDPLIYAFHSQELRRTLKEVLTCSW

[1] = target: T2, MC1-R of B-16 mouse melanoma cells (mouse, UniProt Q01727 1-315); experiment: radioligand competition, [I125]-NDP-α-MSH, B-16 membranes
T2 construct: whole, on cells; also called B16-F10 (MC1-R)
T2 sequence (Q01727 whole entry): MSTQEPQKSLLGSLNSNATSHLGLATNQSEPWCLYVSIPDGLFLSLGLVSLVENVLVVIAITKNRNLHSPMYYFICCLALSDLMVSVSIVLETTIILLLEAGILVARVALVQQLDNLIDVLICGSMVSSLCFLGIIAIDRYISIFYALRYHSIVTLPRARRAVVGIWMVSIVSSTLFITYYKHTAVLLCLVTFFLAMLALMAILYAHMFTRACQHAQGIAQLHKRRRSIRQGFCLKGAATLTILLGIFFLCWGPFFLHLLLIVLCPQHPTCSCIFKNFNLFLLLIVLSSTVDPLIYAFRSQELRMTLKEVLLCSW

[2] = target: T3, human melanocortin 3 receptor (human, UniProt P41968 1-323); experiment: radioligand competition, [I125]-NDP-α-MSH, hMC3-R membranes
T3 construct: whole, on cells; also called hMC3-R; MC3-R
T3 sequence (P41968 whole entry): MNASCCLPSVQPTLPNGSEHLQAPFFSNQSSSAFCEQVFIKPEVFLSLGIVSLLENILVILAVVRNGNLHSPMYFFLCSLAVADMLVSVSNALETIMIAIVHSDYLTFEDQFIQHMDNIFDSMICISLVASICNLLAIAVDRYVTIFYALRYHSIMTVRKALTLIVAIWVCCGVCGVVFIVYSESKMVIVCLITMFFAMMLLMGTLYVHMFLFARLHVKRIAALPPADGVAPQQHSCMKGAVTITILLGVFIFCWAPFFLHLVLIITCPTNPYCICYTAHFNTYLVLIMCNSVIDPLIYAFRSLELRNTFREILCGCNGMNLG

[3] = target: T4, human melanocortin 5 receptor (human, UniProt P33032 1-325); experiment: radioligand competition, [I125]-NDP-α-MSH, hMC5-R membranes
T4 construct: whole, on cells; also called hMC5-R; MC5-R
T4 sequence (P33032 whole entry): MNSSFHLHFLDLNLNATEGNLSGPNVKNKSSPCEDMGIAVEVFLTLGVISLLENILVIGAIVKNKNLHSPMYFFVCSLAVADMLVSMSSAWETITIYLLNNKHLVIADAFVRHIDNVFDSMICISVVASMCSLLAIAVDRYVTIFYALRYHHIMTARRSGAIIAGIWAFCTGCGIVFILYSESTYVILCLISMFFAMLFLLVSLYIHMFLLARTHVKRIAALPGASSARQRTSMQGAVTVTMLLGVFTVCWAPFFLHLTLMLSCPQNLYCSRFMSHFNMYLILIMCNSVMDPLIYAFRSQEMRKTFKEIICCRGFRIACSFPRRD

[4] = target: T5, human melanocortin 4 receptor (human, UniProt P32245 1-332); experiment: radioligand competition, [I125]-NDP-α-MSH, hMC4-R membranes
T5 construct: whole, on cells; cAMP assays used whole cells; also called hMC4-R; MC4-R
T5 sequence (P32245 whole entry): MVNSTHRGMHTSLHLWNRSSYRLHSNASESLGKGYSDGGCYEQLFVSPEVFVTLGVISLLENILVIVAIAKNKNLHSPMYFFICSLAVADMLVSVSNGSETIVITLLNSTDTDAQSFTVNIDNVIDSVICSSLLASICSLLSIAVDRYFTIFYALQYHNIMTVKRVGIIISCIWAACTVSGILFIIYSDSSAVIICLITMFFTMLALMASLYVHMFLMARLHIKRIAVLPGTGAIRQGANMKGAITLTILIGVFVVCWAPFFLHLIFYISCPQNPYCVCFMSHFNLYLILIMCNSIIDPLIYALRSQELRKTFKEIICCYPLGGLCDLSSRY

[5] = target: T5, human melanocortin 4 receptor; experiment: cell-based or functional assay
[6] = target: T5, human melanocortin 4 receptor; experiment: cell-based or functional assay; remark: listed apart in the source
[7] = target: T3, human melanocortin 3 receptor; experiment: radioligand competition, [I125]-NDP-α-MSH, hMC3-R membranes; remark: listed apart in the source
[8] = target: T5, human melanocortin 4 receptor; experiment: cell-based or functional assay; remark: listed apart in the source
[9] = target: T5, human melanocortin 4 receptor; experiment: radioligand competition, [I125]-NDP-α-MSH, hMC4-R membranes; remark: listed apart in the source
[10] = target: T4, human melanocortin 5 receptor; experiment: radioligand competition, [I125]-NDP-α-MSH, hMC5-R membranes; remark: listed apart in the source
[11] = target: T2, MC1-R of B-16 mouse melanoma cells; experiment: radioligand competition, [I125]-NDP-α-MSH, B-16 membranes; remark: listed apart in the source
[12] = target: T5, human melanocortin 4 receptor; experiment: radioligand competition, [I125]-NDP-α-MSH, hMC4-R membranes; remark: listed apart in the source
[13] = target: T3, human melanocortin 3 receptor; experiment: radioligand competition, [I125]-NDP-α-MSH, hMC3-R membranes; remark: listed apart in the source
[14] = target: T5, human melanocortin 4 receptor; experiment: cell-based or functional assay; remark: listed apart in the source
[15] = target: T4, human melanocortin 5 receptor; experiment: radioligand competition, [I125]-NDP-α-MSH, hMC5-R membranes; remark: listed apart in the source
[16] = target: T2, MC1-R of B-16 mouse melanoma cells; experiment: radioligand competition, [I125]-NDP-α-MSH, B-16 membranes; remark: listed apart in the source
[17] = target: T2, MC1-R of B-16 mouse melanoma cells; experiment: as above; remark: listed apart in the source
[18] = target: T5, human melanocortin 4 receptor; experiment: cell-based or functional assay; remark: listed apart in the source
[19] = target: T5, human melanocortin 4 receptor; experiment: radioligand competition, [I125]-NDP-α-MSH, hMC4-R membranes; remark: listed apart in the source
[20] = target: T3, human melanocortin 3 receptor; experiment: radioligand competition, [I125]-NDP-α-MSH, hMC3-R membranes; remark: listed apart in the source
[21] = target: T5, human melanocortin 4 receptor; experiment: cell-based or functional assay; remark: listed apart in the source
[22] = target: T2, MC1-R of B-16 mouse melanoma cells; experiment: radioligand competition, [I125]-NDP-α-MSH, B-16 membranes; remark: listed apart in the source
[23] = target: T4, human melanocortin 5 receptor; experiment: radioligand competition, [I125]-NDP-α-MSH, hMC5-R membranes; remark: listed apart in the source
[24] = target: T5, human melanocortin 4 receptor; experiment: radioligand competition, [I125]-NDP-α-MSH, hMC4-R membranes; remark: listed apart in the source
[25] = target: T3, human melanocortin 3 receptor; experiment: radioligand competition, [I125]-NDP-α-MSH, hMC3-R membranes; remark: listed apart in the source
[26] = target: T5, human melanocortin 4 receptor; experiment: cell-based or functional assay; remark: listed apart in the source
[27] = target: T5, human melanocortin 4 receptor; experiment: radioligand competition, [I125]-NDP-α-MSH, hMC4-R membranes; remark: listed apart in the source
[28] = target: T2, MC1-R of B-16 mouse melanoma cells; experiment: radioligand competition, [I125]-NDP-α-MSH, B-16 membranes; remark: listed apart in the source
[29] = target: T4, human melanocortin 5 receptor; experiment: radioligand competition, [I125]-NDP-α-MSH, hMC5-R membranes; remark: listed apart in the source
[30] = target: T3, human melanocortin 3 receptor; experiment: radioligand competition, [I125]-NDP-α-MSH, hMC3-R membranes; remark: listed apart in the source
[31] = target: T3, human melanocortin 3 receptor; experiment: as above; remark: listed apart in the source
[32] = target: T5, human melanocortin 4 receptor; experiment: radioligand competition, [I125]-NDP-α-MSH, hMC4-R membranes; remark: listed apart in the source
[33] = target: T4, human melanocortin 5 receptor; experiment: radioligand competition, [I125]-NDP-α-MSH, hMC5-R membranes; remark: listed apart in the source
[34] = target: T5, human melanocortin 4 receptor; experiment: cell-based or functional assay; remark: listed apart in the source
[35] = target: T2, MC1-R of B-16 mouse melanoma cells; experiment: radioligand competition, [I125]-NDP-α-MSH, B-16 membranes; remark: listed apart in the source
[36] = target: T2, MC1-R of B-16 mouse melanoma cells; experiment: as above; remark: listed apart in the source
[37] = target: T3, human melanocortin 3 receptor; experiment: radioligand competition, [I125]-NDP-α-MSH, hMC3-R membranes; remark: listed apart in the source
[38] = target: T4, human melanocortin 5 receptor; experiment: radioligand competition, [I125]-NDP-α-MSH, hMC5-R membranes; remark: listed apart in the source
[39] = target: T5, human melanocortin 4 receptor; experiment: radioligand competition, [I125]-NDP-α-MSH, hMC4-R membranes; remark: listed apart in the source
[40] = target: T2, MC1-R of B-16 mouse melanoma cells; experiment: radioligand competition, [I125]-NDP-α-MSH, B-16 membranes; remark: listed apart in the source
[41] = target: T3, human melanocortin 3 receptor; experiment: radioligand competition, [I125]-NDP-α-MSH, hMC3-R membranes; remark: listed apart in the source
[42] = target: T5, human melanocortin 4 receptor; experiment: radioligand competition, [I125]-NDP-α-MSH, hMC4-R membranes; remark: listed apart in the source
[43] = target: T5, human melanocortin 4 receptor; experiment: cell-based or functional assay; remark: listed apart in the source
[44] = target: T4, human melanocortin 5 receptor; experiment: radioligand competition, [I125]-NDP-α-MSH, hMC5-R membranes; remark: listed apart in the source

Binder: Ac-[Nle]DW[dF]R[1Nal]K-NMe2 (lactam 2-7, also called Compound No. 36) [Ac-Nle-cyclo(-Asp-Trp-D-Phe-Arg-Nal 1-Lys)-N(CH3)2]
- Ki (human MC1-R): 39 nM
- Ki [1]: 12 nM
- Ki [2]: 231 nM
- Ki [3]: 31 nM
- Ki [4]: 38 nM
- EC50 (nM) (cAMP), High Receptor Density System [5]: 4 nM
- EC50 (nM), normal system (cAMP) [6]: 272 nM
- intrinsic activity, normal system (cAMP) [6]: 0.8

B1: Ac-Nle-cyclo(-Asp-His-D-Phe-Arg-Nal 1-Lys)-N(CH3)2 (peptide)
peptide: XDHFRXK
modifications: N-terminal acetyl; Nle at 1 (X); D-Phe at 4; Nal 1 at 6 (X); cyclo(Asp 2 to Lys 7); C-terminal dimethylamide -N(CH3)2
notes: also called Compound No. 37
- Ki [7]: 111 nM
- Ki (human MC1-R): 0.08 nM
- EC50 (nM) (cAMP), High Receptor Density System [8]: 0.6 nM
- EC50 (nM) (cAMP), Low Receptor Density System [8]: 2.1 nM
- Ki [9]: 5 nM
- Ki [10]: 50 nM
- EC50 (nM), normal system (cAMP) [6]: 44 nM
- intrinsic activity, normal system (cAMP) [6]: 0.7
- Ki [11]: 0.39 nM

B2: Ac-Nle-cyclo(-Asp-His-D-Phe-Arg-Nal 1-Lys)-NH-CH2-CH3 (peptide)
peptide: XDHFRXK
modifications: N-terminal acetyl; Nle at 1 (X); D-Phe at 4; Nal 1 at 6 (X); cyclo(Asp 2 to Lys 7); C-terminal ethylamide -NH-CH2-CH3
notes: also called Compound No. 39
- Ki [12]: 2 nM
- Ki (human MC1-R): 0.04 nM
- Ki [13]: 28 nM
- EC50 (nM) (cAMP), High Receptor Density System [14]: 1.1 nM
- EC50 (nM) (cAMP), Low Receptor Density System [14]: 10 nM
- Ki [15]: 63 nM
- Ki [16]: 0.07 nM
- EC50 (nM), normal system (cAMP) [6]: 0.2 nM
- intrinsic activity, normal system (cAMP) [6]: 0.6

Binder: Ac-DH[dF]RWK-NHEt (lactam 1-6, also called Compound No. 40) [Ac-cyclo(-Asp-His-D-Phe-Arg-Trp-Lys)-NH-CH2-CH3]
- Ki (human MC1-R): 0.52 nM
- Ki [17]: 5 nM
- EC50 (nM) (cAMP), Low Receptor Density System [18]: 3.1 nM
- Ki [19]: 6 nM
- Ki [20]: 84 nM
- EC50 (nM), normal system (cAMP) [6]: 3 nM
- intrinsic activity, normal system (cAMP) [6]: 0.6

B3: NH2-(CH2)6-C(=O)-Ser(Bzl)-D-Phe(4-Cl)-Arg-Trp-Asp-Phe-NH2 (peptide)
peptide: [Ahp][Ser(Bzl)][dPhe(4-Cl)]RWDF-NH2
modifications: N-terminus assumed
SMILES: N=C(N)NCCC[C@H](NC(=O)[C@@H](Cc1ccc(Cl)cc1)NC(=O)[C@H](COCc1ccccc1)NC(=O)CCCCCCN)C(=O)N[C@@H](Cc1c[nH]c2ccccc12)C(=O)N[C@@H](CC(=O)O)C(=O)N[C@@H](Cc1ccccc1)C(N)=O
notes: also called Compound No. 14
- EC50 (nM) (cAMP), High Receptor Density System [21]: 141 nM
- Ki [22]: 242 nM
- Ki [23]: 405 nM
- Ki [24]: 5 nM
- EC50, normal system (cAMP) [6]: 238 nM
- intrinsic activity, normal system (cAMP) [6]: 0.5
- Ki [25]: 76 nM

B4: Ac-Nle-cyclo(-Asp-Trp-D-Phe-Arg-Nal 1-Lys)-NH-CH2-CH3 (peptide)
peptide: Ac-[Nle]DW[dF]R[1Nal]K-NHEt
modifications: lactam 2-7
SMILES: CCCC[C@H](NC(C)=O)C(=O)N[C@H]1CC(=O)NCCCC[C@@H](C(=O)NCC)NC(=O)[C@H](Cc2cccc3ccccc23)NC(=O)[C@H](CCCNC(=N)N)NC(=O)[C@@H](Cc2ccccc2)NC(=O)[C@H](Cc2c[nH]c3ccccc23)NC1=O
notes: also called Compound No. 38
- Ki (human MC1-R): 30 nM
- EC50 (nM) (cAMP), High Receptor Density System [26]: 10 nM
- Ki [27]: 9 nM
- Ki [28]: 4.2 nM
- EC50 (nM), normal system (cAMP) [6]: 120 nM
- intrinsic activity, normal system (cAMP) [6]: 0.6
- Ki [29]: 47 nM
- Ki [30]: 77 nM

B5: NH2-(CH2)6-C(=O)-Ser(Bzl)-(D)Phe(4-Cl)-Arg-Trp-NH2 (peptide)
peptide: [Ahp][Ser(Bzl)][dPhe(4-Cl)]RW-NH2
modifications: N-terminus assumed
SMILES: N=C(N)NCCC[C@H](NC(=O)[C@@H](Cc1ccc(Cl)cc1)NC(=O)[C@H](COCc1ccccc1)NC(=O)CCCCCCN)C(=O)N[C@@H](Cc1c[nH]c2ccccc12)C(N)=O
notes: also called Compound No. 1
- Ki [31]: 27 nM
- Ki [32]: 3 nM
- Ki [33]: 208 nM
- EC50 (nM) (cAMP), High Receptor Density System [34]: 21 nM
- EC50 (nM) at MC4-R in a normal system (cAMP) [6]: 296 nM
- intrinsic activity, normal system (cAMP) [6]: 0.32
- Ki [35]: 351 nM

Binder: Ac-DW[d2Nal]R[2Nal]K-NHMe (lactam 1-6, also called Compound No. 35) [Ac-cyclo(Asp-Trp-D-Nal 2-Arg-Nal 2-Lys)-NH-CH3]
- Ki [36]: 643 nM
- Ki [37]: 3 nM
- Ki [38]: 6 nM
- Ki [39]: 0.06 nM

B6: NH2-(CH2)6-C(=O)-Ser(Bzl)-D-Phe(4-Cl)-Arg-Trp-Asp-NH2 (peptide)
peptide: [Ahp][Ser(Bzl)][dPhe(4-Cl)]RWD-NH2
modifications: N-terminus assumed
SMILES: N=C(N)NCCC[C@H](NC(=O)[C@@H](Cc1ccc(Cl)cc1)NC(=O)[C@H](COCc1ccccc1)NC(=O)CCCCCCN)C(=O)N[C@@H](Cc1c[nH]c2ccccc12)C(=O)N[C@@H](CC(=O)O)C(N)=O
notes: also called Compound No. 13
- Ki [40]: 760 nM
- Ki [41]: 180 nM
- Ki [42]: 9 nM
- EC50 (nM) (cAMP), High Receptor Density System [43]: 34 nM
- EC50 (nM), normal system (cAMP) [6]: 568 nM
- intrinsic activity, normal system (cAMP) [6]: 0.5
- Ki [44]: 596 nM
